In patent publication US20190300590A1 (PROTAGONIST THERAPEUTICS, published 2019):
Like-named read-outs stand apart in the source and are kept apart here. Bridges are numbered along the chain shown (N, C = ends). Primed or numbered codes have the meaning given here. Where no end group is shown, it is not given here. [ ]: non-standard residue; d: D form. Bip = N[C@@H](Cc1ccc(-c2ccccc2)cc1)C(=O)O; 1Nal = N[C@@H](Cc1cccc2ccccc12)C(=O)O; NMeH = CN[C@@H](Cc1c[nH]cn1)C(=O)O; NMeE = CN[C@@H](CCC(=O)O)C(=O)O; Aic′ = not defined here; Aib = CC(C)(N)C(=O)O; PEG1 = NCCOCCC(=O)O; AEA = NCCOCC(=O)O

Experiments:
IL23R_huFC [1] = biological target: T1, IL23R_huFC (human, UniProt Q5VWK5 24-353); assay: IL23-IL23R competitive ELISA
T1 sequence (looked up): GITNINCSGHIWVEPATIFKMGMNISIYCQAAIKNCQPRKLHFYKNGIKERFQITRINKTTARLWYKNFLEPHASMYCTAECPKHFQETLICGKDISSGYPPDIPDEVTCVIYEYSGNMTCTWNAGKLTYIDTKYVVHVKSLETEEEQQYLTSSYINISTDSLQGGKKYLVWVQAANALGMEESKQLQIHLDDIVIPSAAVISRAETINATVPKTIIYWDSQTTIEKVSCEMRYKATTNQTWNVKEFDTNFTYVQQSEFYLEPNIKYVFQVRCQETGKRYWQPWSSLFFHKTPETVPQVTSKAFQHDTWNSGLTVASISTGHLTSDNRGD

IL23R_huFC [2] = biological target: T1, IL23R_huFC; assay: IL23-IL23R competitive ELISA; remark: listed apart in the source

B1: Ac-CADWVCY-[1-Nal]-HTF-[Aib]-NH2 (peptide)
peptide: Ac-CADWVCY[1Nal]HTF[Aib]-NH2
modifications: disulfide 1-6
SMILES: CC(=O)N[C@H]1CSSC[C@@H](C(=O)N[C@@H](Cc2ccc(O)cc2)C(=O)N[C@@H](Cc2cccc3ccccc23)C(=O)N[C@@H](Cc2c[nH]cn2)C(=O)N[C@H](C(=O)N[C@@H](Cc2ccccc2)C(=O)NC(C)(C)C(N)=O)[C@@H](C)O)NC(=O)[C@H](C(C)C)NC(=O)[C@H](Cc2c[nH]c3ccccc23)NC(=O)[C@H](CC(=O)O)NC(=O)[C@H](C)NC1=O
IC50 (IL23R_huFC [1]): > 1000 nM

Ac-CADWVCYWHRCGWWGC-NH2 (disulfide (positions not given here)) [Ac-CADWVCYWHRCGWWGC-NH2]
IC50 (IL23R_huFC [1]): > 1000 nM

B2: Ac-CADWVCY-[1-Nal]-H-[Aib]-FG-NH2 (peptide)
peptide: Ac-CADWVCY[1Nal]H[Aib]FG-NH2
modifications: disulfide 1-6
SMILES: CC(=O)N[C@H]1CSSC[C@@H](C(=O)N[C@@H](Cc2ccc(O)cc2)C(=O)N[C@@H](Cc2cccc3ccccc23)C(=O)N[C@@H](Cc2c[nH]cn2)C(=O)NC(C)(C)C(=O)N[C@@H](Cc2ccccc2)C(=O)NCC(N)=O)NC(=O)[C@H](C(C)C)NC(=O)[C@H](Cc2c[nH]c3ccccc23)NC(=O)[C@H](CC(=O)O)NC(=O)[C@H](C)NC1=O
IC50 (IL23R_huFC [1]): > 1000 nM

Ac-CADWVCY[Aic′]HTFG[AEA][dK]-NH2 (disulfide 1-6) [Ac-CADWVCY-[Aic]-HTFG-[AEA]-[(D)Lys]-NH2]
IC50 (IL23R_huFC [1]): > 1000 nM

B3: Ac-CADWVCY-[1-Nal]-[N-Me-His]-[(D)Ala]-F-[Aib]-NH2 (peptide)
peptide: Ac-CADWVCY[1Nal][NMeH][dA]F[Aib]-NH2
modifications: disulfide 1-6
SMILES: CC(=O)N[C@H]1CSSC[C@@H](C(=O)N[C@@H](Cc2ccc(O)cc2)C(=O)N[C@@H](Cc2cccc3ccccc23)C(=O)N(C)[C@@H](Cc2c[nH]cn2)C(=O)N[C@H](C)C(=O)N[C@@H](Cc2ccccc2)C(=O)NC(C)(C)C(N)=O)NC(=O)[C@H](C(C)C)NC(=O)[C@H](Cc2c[nH]c3ccccc23)NC(=O)[C@H](CC(=O)O)NC(=O)[C@H](C)NC1=O
IC50 (IL23R_huFC [1]): > 1000 nM

B4: Ac-CADWVCY-[1-Nal]-H-[Aib]-[(D)Phe]-G-NH2 (peptide)
peptide: Ac-CADWVCY[1Nal]H[Aib][dF]G-NH2
modifications: disulfide 1-6
SMILES: CC(=O)N[C@H]1CSSC[C@@H](C(=O)N[C@@H](Cc2ccc(O)cc2)C(=O)N[C@@H](Cc2cccc3ccccc23)C(=O)N[C@@H](Cc2c[nH]cn2)C(=O)NC(C)(C)C(=O)N[C@H](Cc2ccccc2)C(=O)NCC(N)=O)NC(=O)[C@H](C(C)C)NC(=O)[C@H](Cc2c[nH]c3ccccc23)NC(=O)[C@H](CC(=O)O)NC(=O)[C@H](C)NC1=O
IC50 (IL23R_huFC [1]): > 1000 nM

Ac-CADWVC-NH2 (disulfide 1-6 (inferred)) [Ac-CADWVC-NH2]
IC50 (IL23R_huFC [1]): > 1000 nM

Ac-CQTWQCYW[NMeE]NG[AEA][dK] (disulfide 1-6 (inferred)) [Ac-CQTWQCYW[N-MeGlu]-NG-[AEA]-[(D)-Lys]]
IC50 (IL23R_huFC [1]): > 1000 nM

B5: Ac-CADWVCY-[1-Nal]-H-[AEP]-G-NH2 (peptide)
peptide: Ac-CADWVCY[1Nal]H[PEG1]G-NH2
modifications: disulfide 1-6
SMILES: CC(=O)N[C@H]1CSSC[C@@H](C(=O)N[C@@H](Cc2ccc(O)cc2)C(=O)N[C@@H](Cc2cccc3ccccc23)C(=O)N[C@@H](Cc2c[nH]cn2)C(=O)NCCOCCC(=O)NCC(N)=O)NC(=O)[C@H](C(C)C)NC(=O)[C@H](Cc2c[nH]c3ccccc23)NC(=O)[C@H](CC(=O)O)NC(=O)[C@H](C)NC1=O
IC50 (IL23R_huFC [1]): > 1000 nM

Ac-CQDWQCYWRENG[AEA][dK]-NH2 (disulfide 1-6 (inferred)) [Ac-CQDWQCYWRENG-[AEA]-[(D)-Lys]-NH2]
IC50 (IL23R_huFC [2]): < 500 nM

B6: Ac-CQTWQCYWRTNG-[AEA]-[(D)-Lys]-NH2 (peptide)
peptide: Ac-CQTWQCYWRTNG[AEA][dK]-NH2
modifications: disulfide 1-6
SMILES: CC(=O)N[C@H]1CSSC[C@@H](C(=O)N[C@@H](Cc2ccc(O)cc2)C(=O)N[C@@H](Cc2c[nH]c3ccccc23)C(=O)N[C@@H](CCCNC(=N)N)C(=O)N[C@H](C(=O)N[C@@H](CC(N)=O)C(=O)NCC(=O)NCCOCC(=O)N[C@H](CCCCN)C(N)=O)[C@@H](C)O)NC(=O)[C@H](CCC(N)=O)NC(=O)[C@H](Cc2c[nH]c3ccccc23)NC(=O)[C@H]([C@@H](C)O)NC(=O)[C@H](CCC(N)=O)NC1=O
IC50 (IL23R_huFC [2]): < 500 nM

B7: Ac-CQTWQCYWRENG-[AEA]-[(D)-Lys]-NH2 (peptide)
peptide: Ac-CQTWQCYWRENG[AEA][dK]-NH2
modifications: disulfide 1-6
SMILES: CC(=O)N[C@H]1CSSC[C@@H](C(=O)N[C@@H](Cc2ccc(O)cc2)C(=O)N[C@@H](Cc2c[nH]c3ccccc23)C(=O)N[C@@H](CCCNC(=N)N)C(=O)N[C@@H](CCC(=O)O)C(=O)N[C@@H](CC(N)=O)C(=O)NCC(=O)NCCOCC(=O)N[C@H](CCCCN)C(N)=O)NC(=O)[C@H](CCC(N)=O)NC(=O)[C@H](Cc2c[nH]c3ccccc23)NC(=O)[C@H]([C@@H](C)O)NC(=O)[C@H](CCC(N)=O)NC1=O
IC50 (IL23R_huFC [2]): < 500 nM

B8: Ac-CQTWQCYWRKNG-[AEA]-[(D)-Lys]-NH2 (peptide)
peptide: Ac-CQTWQCYWRKNG[AEA][dK]-NH2
modifications: disulfide 1-6
SMILES: CC(=O)N[C@H]1CSSC[C@@H](C(=O)N[C@@H](Cc2ccc(O)cc2)C(=O)N[C@@H](Cc2c[nH]c3ccccc23)C(=O)N[C@@H](CCCNC(=N)N)C(=O)N[C@@H](CCCCN)C(=O)N[C@@H](CC(N)=O)C(=O)NCC(=O)NCCOCC(=O)N[C@H](CCCCN)C(N)=O)NC(=O)[C@H](CCC(N)=O)NC(=O)[C@H](Cc2c[nH]c3ccccc23)NC(=O)[C@H]([C@@H](C)O)NC(=O)[C@H](CCC(N)=O)NC1=O
IC50 (IL23R_huFC [2]): < 500 nM

B9: Ac-CQTWQCYWRENG-[AEA]-[(D)Arg]-NH2 (peptide)
peptide: Ac-CQTWQCYWRENG[AEA][dR]-NH2
modifications: disulfide 1-6
SMILES: CC(=O)N[C@H]1CSSC[C@@H](C(=O)N[C@@H](Cc2ccc(O)cc2)C(=O)N[C@@H](Cc2c[nH]c3ccccc23)C(=O)N[C@@H](CCCNC(=N)N)C(=O)N[C@@H](CCC(=O)O)C(=O)N[C@@H](CC(N)=O)C(=O)NCC(=O)NCCOCC(=O)N[C@H](CCCNC(=N)N)C(N)=O)NC(=O)[C@H](CCC(N)=O)NC(=O)[C@H](Cc2c[nH]c3ccccc23)NC(=O)[C@H]([C@@H](C)O)NC(=O)[C@H](CCC(N)=O)NC1=O
IC50 (IL23R_huFC [2]): < 500 nM

B10: Ac-CQTWQCYWRENG-[AEA]-[(D)-Lys]-NH2 (peptide)
peptide: Ac-CQTWQCYWRENG[AEA][dK]-NH2
modifications: disulfide 1-6
SMILES: CC(=O)N[C@H]1CSSC[C@@H](C(=O)N[C@@H](Cc2ccc(O)cc2)C(=O)N[C@@H](Cc2c[nH]c3ccccc23)C(=O)N[C@@H](CCCNC(=N)N)C(=O)N[C@@H](CCC(=O)O)C(=O)N[C@@H](CC(N)=O)C(=O)NCC(=O)NCCOCC(=O)N[C@H](CCCCN)C(N)=O)NC(=O)[C@H](CCC(N)=O)NC(=O)[C@H](Cc2c[nH]c3ccccc23)NC(=O)[C@H]([C@@H](C)O)NC(=O)[C@H](CCC(N)=O)NC1=O
IC50 (IL23R_huFC [2]): < 500 nM

B11: Ac-CQTWQCYWRKNG-[AEA]-[(D)-Lys]-NH2 (peptide)
peptide: Ac-CQTWQCYWRKNG[AEA][dK]-NH2
modifications: disulfide 1-6
SMILES: CC(=O)N[C@H]1CSSC[C@@H](C(=O)N[C@@H](Cc2ccc(O)cc2)C(=O)N[C@@H](Cc2c[nH]c3ccccc23)C(=O)N[C@@H](CCCNC(=N)N)C(=O)N[C@@H](CCCCN)C(=O)N[C@@H](CC(N)=O)C(=O)NCC(=O)NCCOCC(=O)N[C@H](CCCCN)C(N)=O)NC(=O)[C@H](CCC(N)=O)NC(=O)[C@H](Cc2c[nH]c3ccccc23)NC(=O)[C@H]([C@@H](C)O)NC(=O)[C@H](CCC(N)=O)NC1=O
IC50 (IL23R_huFC [2]): < 500 nM

B12: Ac-CQTWQCYWRRNG-[AEA]-[(D)-Lys]-NH2 (peptide)
peptide: Ac-CQTWQCYWRRNG[AEA][dK]-NH2
modifications: disulfide 1-6
SMILES: CC(=O)N[C@H]1CSSC[C@@H](C(=O)N[C@@H](Cc2ccc(O)cc2)C(=O)N[C@@H](Cc2c[nH]c3ccccc23)C(=O)N[C@@H](CCCNC(=N)N)C(=O)N[C@@H](CCCNC(=N)N)C(=O)N[C@@H](CC(N)=O)C(=O)NCC(=O)NCCOCC(=O)N[C@H](CCCCN)C(N)=O)NC(=O)[C@H](CCC(N)=O)NC(=O)[C@H](Cc2c[nH]c3ccccc23)NC(=O)[C@H]([C@@H](C)O)NC(=O)[C@H](CCC(N)=O)NC1=O
IC50 (IL23R_huFC [2]): < 500 nM

B13: Ac-CQTWQCYWRENG-[AEA]-[(D)-Lys]-NH2 (peptide)
peptide: Ac-CQTWQCYWRENG[AEA][dK]-NH2
modifications: disulfide 1-6
SMILES: CC(=O)N[C@H]1CSSC[C@@H](C(=O)N[C@@H](Cc2ccc(O)cc2)C(=O)N[C@@H](Cc2c[nH]c3ccccc23)C(=O)N[C@@H](CCCNC(=N)N)C(=O)N[C@@H](CCC(=O)O)C(=O)N[C@@H](CC(N)=O)C(=O)NCC(=O)NCCOCC(=O)N[C@H](CCCCN)C(N)=O)NC(=O)[C@H](CCC(N)=O)NC(=O)[C@H](Cc2c[nH]c3ccccc23)NC(=O)[C@H]([C@@H](C)O)NC(=O)[C@H](CCC(N)=O)NC1=O
IC50 (IL23R_huFC [2]): < 500 nM

B14: Ac-CADWVCY-[Bip]-HTFG-[AEA]-[(D)Lys]-NH2 (peptide)
peptide: Ac-CADWVCY[Bip]HTFG[AEA][dK]-NH2
modifications: disulfide 1-6
SMILES: CC(=O)N[C@H]1CSSC[C@@H](C(=O)N[C@@H](Cc2ccc(O)cc2)C(=O)N[C@@H](Cc2ccc(-c3ccccc3)cc2)C(=O)N[C@@H](Cc2c[nH]cn2)C(=O)N[C@H](C(=O)N[C@@H](Cc2ccccc2)C(=O)NCC(=O)NCCOCC(=O)N[C@H](CCCCN)C(N)=O)[C@@H](C)O)NC(=O)[C@H](C(C)C)NC(=O)[C@H](Cc2c[nH]c3ccccc23)NC(=O)[C@H](CC(=O)O)NC(=O)[C@H](C)NC1=O
IC50 (IL23R_huFC [1]): > 1000 nM
